Data: patent publication US20240150445A1 (DUKE UNIVERSITY, published 2024)

Biological target: Env 10.17 gp120 (HIV-1)
Assay: direct-binding ELISA (OD450) on CH848.d0949.10.17 gp120 [panel A]

B1: DH270.IA4 (antibody, V domains shown)
VH: QVQLVQSGAEVKKPGASVKVSCKASGYTFTDYYIHWVRQAPGQGLEWMGWINPNTGRTNYAQKFQGRVTMTRDTSISTAYMELSRLRSDDTAVYYCARGGWIGLYYDSSGYPNFDYWGQGTLVTVSS
VL: QSALTQPASVSGSPGQSITISCTGTSYDVGSYNLVSWYQQHPGKAPKLMIYEVSKRPSGVSNRFSGSKSGNTASLTISGLQAEDEADYYCCSYAGSSTVIFGGGTKLTVL
notes: Inferred intermediate, recombinant IgG; also called DH270.I4
EC50 (read off the curve): ~2 µg/mL
